Measurements from PMC9505709, “Valorization of Biomasses from Energy Crops for the Discovery of Novel Thermophilic Glycoside Hydrolases through Metagenomic Analysis” (International Journal of Molecular Sciences, 2022).

Biological target: Aglu1, α-glucosidase of family GH31 from an unknown hyperthermophilic archaeon (unknown hyperthermophilic archaeon (metagenome; family Sulfolobaceae, unclassified genus))
Test: SEC; gel filtration on Superose 6 10/300, isocratic 20 mM Tris HCl pH 8.0; markers thyroglobulin, apoferritin, BSA, cytochrome C; native mass 462 kDa against 80 kDa for the monomer

Aglu1, α-glucosidase of family GH31 from an unknown hyperthermophilic archaeon (enzyme)
stoichiometry N: 6
